Results as given in paper doi:10.1101/2024.12.28.630591 (bioRxiv, 2024).
Numbering of substitutions follows the chain as printed. Names and notes keep the numbering of the source.

T1: Gα13 K94E/R97E (human, UniProt Q14344 1-377, K94E | R97E)
T1 sequence (looked up): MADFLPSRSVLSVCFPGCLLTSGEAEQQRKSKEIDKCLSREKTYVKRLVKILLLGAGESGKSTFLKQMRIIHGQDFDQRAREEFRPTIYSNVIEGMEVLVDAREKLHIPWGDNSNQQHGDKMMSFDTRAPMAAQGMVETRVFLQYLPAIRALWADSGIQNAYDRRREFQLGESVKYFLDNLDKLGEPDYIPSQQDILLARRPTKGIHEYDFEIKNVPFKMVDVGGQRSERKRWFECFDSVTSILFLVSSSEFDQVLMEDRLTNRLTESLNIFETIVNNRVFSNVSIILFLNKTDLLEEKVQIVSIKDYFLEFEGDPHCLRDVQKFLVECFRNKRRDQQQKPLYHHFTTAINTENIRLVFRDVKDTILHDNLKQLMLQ

T2: Gα13 R279A (human, UniProt Q14344 1-377, R279A)
T2 sequence (looked up): T1 sequence (looked up) with E94K, E97R, R279A

T3: Gα13 P202A (human, UniProt Q14344 1-377, P202A)
T3 sequence (looked up): T1 sequence (looked up) with E94K, E97R, P202A

T4: Gα12 (human, UniProt Q03113 1-381)
T4 sequence: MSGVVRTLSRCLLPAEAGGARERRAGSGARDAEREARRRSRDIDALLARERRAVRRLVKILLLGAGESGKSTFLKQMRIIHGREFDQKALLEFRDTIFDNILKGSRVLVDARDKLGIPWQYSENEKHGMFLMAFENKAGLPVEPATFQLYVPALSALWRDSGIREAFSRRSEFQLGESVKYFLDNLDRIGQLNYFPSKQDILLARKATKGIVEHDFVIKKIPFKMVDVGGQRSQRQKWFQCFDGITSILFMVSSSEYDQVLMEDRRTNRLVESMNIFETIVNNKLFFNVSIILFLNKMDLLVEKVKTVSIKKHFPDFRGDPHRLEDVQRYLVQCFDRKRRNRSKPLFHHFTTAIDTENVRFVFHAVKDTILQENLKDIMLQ

T5: Gα13 (human, UniProt Q14344 1-377)
T5 sequence: T1 sequence (looked up) with E94K, E97R

B1: PDZ RhoGEF-RlucII sensor (domain or fragment, UniProt O15085 281-483, looked up)
chain: QGVDQSPKPLIIGPEEDYDPGYFNNESDIIFQDLEKLKSRPAHLGVFLRYIFSQADPSPLLFYLCAEVYQQASPKDSRSLGKDIWNIFLEKNAPLRVKIPEMLQAEIDSRLRNSEDARGVLCEAQEAAMPEIQEQIHDYRTKRTLGLGSLYGENDLLDLDGDPLRERQVAEKQLAALGDILSKYEEDRSAPMDFALNTYMSHA
B2: p115 RhoGEF (21-244)-RlucII (domain or fragment, UniProt Q92888 21-244, looked up)
chain: VSIIGAEDEDFENELETNSEEQNSQFQSLEQVKRRPAHLMALLQHVALQFEPGPLLCCLHADMLGSLGPKEAKKAFLDFYHSFLEKTAVLRVPVPPNVAFELDRTRADLISEDVQRRFVQEVVQSQQVAVGRQLEDFRSKRLMGMTPWEQELAQLEAWVGRDRASYEARERHVAERLLMHLEEMQHTISTDEEKSAAVVNAIGLYMRHLGVRTKSGDKKSGRNF
B3: p115 RhoGEF (21-244)-RlucII E27A (domain or fragment)
chain: B2 chain with E7A
B4: p115 RhoGEF (21-244)-RlucII I23A (domain or fragment)
chain: B2 chain with I3A
B5: p115 RhoGEF (21-244)-RlucII I23F (domain or fragment)
chain: B2 chain with I3F

Tests used:
Experiment in all cases: FRET or BRET
Gα13 K94E/R97E = target: T1, Gα13 K94E/R97E
Gα13 R279A = target: T2, Gα13 R279A
[1] = target: Gα13 with mutations in three helical domain residues
Gα13 R201V (human) = Gα13 R201V (human) (UniProt Q14344)
Gα13 P202A = target: T3, Gα13 P202A
Gα12 = target: T4, Gα12
Gα13 = target: T5, Gα13

| Binder | percent reduction of recruitment against WT Gα13 (Gα13 K94E/R97E) | percent reduction of recruitment against WT Gα13 (Gα13 R279A) | percent reduction of recruitment against WT Gα13 [1] | percent reduction of recruitment against WT Gα13 (Gα13 R201V (human)) | percent reduction of recruitment against WT Gα13 (Gα13 P202A) | percent reduction of recruitment against WT p115RhoGEF sensor (Gα12) | percent reduction of recruitment against WT p115RhoGEF sensor (Gα13) |
| --- | --- | --- | --- | --- | --- | --- | --- |
| B1 | 71% | 50% |  |  |  |  |  |
| B2 | 81% | 50% | 27 to 81% | 26% | 37% |  |  |
| B3 |  |  |  |  |  | ~50% | ~50% |
| B4 |  |  |  |  |  | ~50% | ~50% |
| B5 |  |  |  |  |  | ~50% | ~50% |
